Results reported in IntAct's records for PubMed 18166655.

B1: Death-associated inhibitor of apoptosis 2 (Drosophila melanogaster (Fruit fly)), Q24307 (parent)
chain: MTELGMELESVRLATFGEWPLNAPVSAEDLVANGFFATGNWLEAECHFCHVRIDRWEYGDQVAERHRRSSPICSMVLAPNHCGNVPRSQESDNEGNSVVDSPESCSCPDLLLEANRLVTFKDWPNPNITPQALAKAGFYYLNRLDHVKCVWCNGVIAKWEKNDNAFEEHKRFFPQCPRVQMGPLIEFATGKNLDELGIQPTTLPLRPKYACVDARLRTFTDWPISNIQPASALAQAGLYYQKIGDQVRCFHCNIGLRSWQKEDEPWFEHAKWSPKCQFVLLAKGPAYVSEVLATTAANASSQPATAPAPTLQADVLMDEAPAKEALALGIDGGVVRNAIQRKLLSSGCAFSTLDELLHDIFDDAGAGAALEVREPPEPSAPFIEPCQATTSKAASVPIPVADSIPAKPQAAEAVANISKITDEIQKMSVATPNGNLSLEEENRQLKDARLCKVCLDEEVGVVFLPCGHLATCNQCAPSVANCPMCRADIKGFVRTFLS
partner: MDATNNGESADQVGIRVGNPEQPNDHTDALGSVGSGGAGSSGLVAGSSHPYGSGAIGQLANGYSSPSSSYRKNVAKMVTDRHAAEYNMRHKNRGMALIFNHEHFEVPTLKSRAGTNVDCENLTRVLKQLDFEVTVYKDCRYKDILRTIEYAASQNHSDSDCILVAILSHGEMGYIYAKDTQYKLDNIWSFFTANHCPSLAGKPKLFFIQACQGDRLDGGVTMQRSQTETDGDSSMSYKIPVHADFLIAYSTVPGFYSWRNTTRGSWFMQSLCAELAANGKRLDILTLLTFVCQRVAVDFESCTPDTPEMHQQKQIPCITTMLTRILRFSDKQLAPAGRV
B2: Death-associated inhibitor of apoptosis 2 (Drosophila melanogaster (Fruit fly)), Q24307 (parent)
chain: B1 chain
partner: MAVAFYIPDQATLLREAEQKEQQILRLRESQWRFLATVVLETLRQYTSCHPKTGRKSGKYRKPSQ
B3: Caspase drICE (Drosophila melanogaster (Fruit fly)), O01382 (parent)
chain: B1 partner
partner: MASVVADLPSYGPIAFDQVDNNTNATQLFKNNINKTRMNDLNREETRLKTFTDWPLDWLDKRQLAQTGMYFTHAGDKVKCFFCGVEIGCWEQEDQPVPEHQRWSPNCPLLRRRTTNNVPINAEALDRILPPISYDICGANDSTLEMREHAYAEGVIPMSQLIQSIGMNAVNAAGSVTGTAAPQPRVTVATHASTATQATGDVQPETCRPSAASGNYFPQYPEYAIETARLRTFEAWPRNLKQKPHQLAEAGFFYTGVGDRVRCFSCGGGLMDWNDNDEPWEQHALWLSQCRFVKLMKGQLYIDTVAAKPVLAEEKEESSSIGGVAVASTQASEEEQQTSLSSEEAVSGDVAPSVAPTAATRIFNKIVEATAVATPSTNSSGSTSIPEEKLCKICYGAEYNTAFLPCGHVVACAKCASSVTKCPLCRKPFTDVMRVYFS
B4: Caspase drICE (Drosophila melanogaster (Fruit fly)), O01382 (parent)
chain: B1 partner
partner: B1 chain
B5: Death-associated inhibitor of apoptosis 2 (Drosophila melanogaster (Fruit fly)), Q24307 (parent)
chain: B1 chain
partner: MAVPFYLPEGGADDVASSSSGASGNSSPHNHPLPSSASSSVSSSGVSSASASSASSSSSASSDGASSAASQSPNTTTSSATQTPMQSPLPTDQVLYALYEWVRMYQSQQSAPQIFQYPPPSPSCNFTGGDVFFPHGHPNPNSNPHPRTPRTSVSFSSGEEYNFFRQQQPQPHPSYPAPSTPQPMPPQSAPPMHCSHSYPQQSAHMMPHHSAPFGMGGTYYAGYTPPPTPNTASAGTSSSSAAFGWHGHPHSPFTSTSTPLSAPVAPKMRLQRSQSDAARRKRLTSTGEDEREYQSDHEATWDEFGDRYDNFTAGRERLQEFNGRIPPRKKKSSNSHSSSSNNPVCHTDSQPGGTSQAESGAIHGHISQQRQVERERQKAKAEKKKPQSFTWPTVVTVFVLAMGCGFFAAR
B6: Death-associated inhibitor of apoptosis 2 (Drosophila melanogaster (Fruit fly)), Q24307 (parent)
chain: B1 chain
partner: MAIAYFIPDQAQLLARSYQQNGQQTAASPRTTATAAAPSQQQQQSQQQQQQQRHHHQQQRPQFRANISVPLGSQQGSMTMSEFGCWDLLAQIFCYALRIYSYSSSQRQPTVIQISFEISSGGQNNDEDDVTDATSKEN

Variants of: B1
Conditions: with drice_drome Drice

| Variant | effect of a mutation on the interaction |
| --- | --- |
| D263A | disrupting interaction strength |
| C249G | disrupting interaction strength |
| D100E | disrupting interaction strength |
| C149G | with no effect |
| D163A | with no effect |

Variants of: B2
Conditions: with rpr_drome rpr

| Variant | effect of a mutation on the interaction |
| --- | --- |
| C46G | with no effect |
| C149G | decreasing interaction strength |
| C149G;C249G | decreasing interaction strength |
| C249G | with no effect |

Variants of: B3
Conditions: with diap1_drome Diap1, Q24306

| Variant | effect of a mutation on the interaction |
| --- | --- |
| C211A | with no effect |

Variants of: B4
Conditions: with diap2_drome Diap2, Q24307

| Variant | effect of a mutation on the interaction |
| --- | --- |
| A29V | decreasing interaction strength |

Variants of: B5
Conditions: with hid_drome hid

| Variant | effect of a mutation on the interaction |
| --- | --- |
| C149G | with no effect |
| C149G;C249G | decreasing interaction strength |
| C249G | with no effect |
| C46G | with no effect |

Variants of: B5
Conditions: with hid_drome hid
Remark: another data set of the same source

| Variant | effect of a mutation on the interaction |
| --- | --- |
| D100E | with no effect |

Variants of: B6
Conditions: with grim_drome grim

| Variant | effect of a mutation on the interaction |
| --- | --- |
| C249G | with no effect |
| C149G;C249G | disrupting interaction strength |
| C46G | with no effect |
| C149G | decreasing interaction strength |
